Patent publication US20230190870A1, “Method for Treating Lysosomal Storage Diseases with Histatin Peptides” (THE BOARD OF TRUSTEES OF THE UNIVERSITY OF ILLINOIS, priority 2020, published 2023)
Square brackets hold non-standard residues; d marks the D form. Ends that are not written are not given here. Peptide text beside a SMILES is read from it. pS = N[C@@H](COP(=O)(O)O)C(=O)O

Columns and labels:
[1] = target: T1, Synthetic TMEM97 (144-176) (Homo sapiens, UniProt Q5BJF2); experiment: Surface plasmon resonance, immobilized synthetic TMEM97 (144-176); format: binding; settings: SPR
T1 construct: made in house; host or cells: chemical solid-phase synthesis (Fmoc, Wang resin)
Protocol: (§1) Surface Plasmon Resonance (SPR). Recombinant full-length TMEM97 (also called MAC30, from HEK293 cells) and GST-TMEM97 (108-176, recombinant GST-C terminal from wheat germ) proteins were purchased from OriGene (Rockville, Md.) and Abnova (Taipei City, Taiwan), respectively. Three peptides, TMEM97 (108-176), TMEM97 (108-143) and TMEM97 (144-176), were synthesized. All proteins and peptides were initially prepared in HBS buffer containing 10 mM HEPES, pH 7.4, 150 mM NaCl, and 0.05% surfactant P20. The CM5 sensor surface was first activated by 1-ethyl-3-(3-dimethylaminopropyl) carbodiimide hydrochloride (EDC)/N-hydroxy succinimide (NHS) mixture using a Biacore T200 or Biacore 8K instrument (GE Healthcare). […] Flow channels 1 and 3 were used as references.
(§2) The three synthesized peptides were diluted to 50 μg/mL in 10 mM sodium acetate at pH 4.0 and immobilized to flow channels 2, 3 and 4, respectively, on another sensor chip. The unmodified surfaces on a flow channel 1 were used as a reference control. Histatin solutions with a series of increasing concentrations (0.78-25 μM at 2-fold dilution) were applied to all four channels at a 30 μL/minute flow rate at 25° C. The data were double-referenced with reference channel and zero concentration responses, and reference subtracted sensorgrams were fitted with 1 to 1 Langmuir kinetic model using a Biacore T200 evaluation software V3.0 or Insight evaluation software. The equilibrium dissociation constants ([…]) were determined from two rate constants (KD=kd/ka).
(§3) To determine more precisely which segment of TMEM97 is necessary for binding of Hst1, multiple synthetic fragments of TMEM97 were generated (Table 6) and binding to Hst1 was tested using SPR. […] Smaller fragments of the C-terminal of TMEM97 were then constructed to represent the (predicted) luminal (108-143) and cytoplasmic (144-176) exposed segments of the C-terminus of TMEM97 based on modeling experiments previously described. […] SPR results for Hst1 were confirmed using ITC as an orthogonal analytical method.
(§4) To determine the region(s) of Hst1 that mediate binding to TMEM97, SPR testing was performed with various Hst1 fragments and either recombinant TMEM97 (GST-tagged, wheat-germ derived, C-terminal fragment TMEM97 (108-176)) or synthesized TMEM97 (TMEM97 (108-176), TMEM97 (108-143) and TMEM97 (144-176)).

GST-TMEM97 (108-176) = target: T2, GST-TMEM97 (108-176) (Homo sapiens, UniProt Q5BJF2); experiment: Surface plasmon resonance, immobilized GST-TMEM97 (108-176); format: binding; settings: SPR
T2 construct: GST-TMEM97 (108-176, recombinant GST-C terminal from wheat germ); purchased Abnova (Taipei City, Taiwan); host or cells: wheat germ (cell-free)
Protocol: as §1, §2, §4

[2] = target: T3, Synthetic TMEM97 (108-176) (Homo sapiens, UniProt Q5BJF2); experiment: Surface plasmon resonance, immobilized synthetic TMEM97 (108-176); format: binding; settings: SPR
T3 construct: Three peptides, TMEM97 (108-176), TMEM97 (108-143) and TMEM97 (144-176), were synthesized; made in house; host or cells: chemical solid-phase synthesis (Fmoc, Wang resin)
Protocol: as §1, §2, §3, §4

[3] = target: T4, Synthetic TMEM97 (108-143) (Homo sapiens, UniProt Q5BJF2); experiment: Surface plasmon resonance, immobilized synthetic TMEM97 (108-143); format: binding; settings: SPR
T4 construct: made in house; host or cells: chemical solid-phase synthesis (Fmoc, Wang resin)
Protocol: as §1, §2, §3, §4

[4] = target: T5, full-length recombinant TMEM97 (HEK293 cells) (Homo sapiens, UniProt Q5BJF2); experiment: Surface plasmon resonance, immobilized full-length TMEM97; format: binding; settings: SPR
T5 construct: Recombinant full-length TMEM97 (also called MAC30, from HEK293 cells); purchased OriGene (Rockville, Md.); host or cells: HEK293 cells
T5 sequence (Q5BJF2 whole entry): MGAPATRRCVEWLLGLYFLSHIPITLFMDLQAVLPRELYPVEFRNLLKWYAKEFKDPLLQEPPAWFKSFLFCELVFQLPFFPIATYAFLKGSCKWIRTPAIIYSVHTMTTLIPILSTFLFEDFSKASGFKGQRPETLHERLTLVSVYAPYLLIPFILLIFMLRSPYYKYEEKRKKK
Protocol: The three synthesized peptides were diluted to 50 μg/mL in 10 mM sodium acetate at pH 4.0 and immobilized to flow channels 2, 3 and 4, respectively, on another sensor chip. The unmodified surfaces on a flow channel 1 were used as a reference control. […] The data were double-referenced with reference channel and zero concentration responses, and reference subtracted sensorgrams were fitted with 1 to 1 Langmuir kinetic model using a Biacore T200 evaluation software V3.0 or Insight evaluation software. The equilibrium dissociation constants (K&) were determined from two rate constants (KD=kd/ka).

HCE cells = experiment: Immunofluorescence imaging of internalization and localization; format: cell-based, human; settings: 24 hours after exposure
Protocol: Immunofluorescence Imaging. HCE cells were seeded on glass coverslips (Fisher Scientific Co.; Pittsburgh, Pa.) within a 6-well plate at 3×10^5 (cells/well) seeding density. […] HCE cells were then fixed in 3.7% paraformaldehyde, permeabilized with phosphate-buffered saline (PBS) containing 0.2% TRITON™ X-100 for 5 minutes, and washed three times for 5 minutes each time in PBS. For blocking, cells were and incubated at room temperature for 30 minutes with 5% bovine serum albumin (BSA) and 5% normal goat serum in PBS. For the Endoplasmic Reticulum (ER) staining, a Cytopainter ER staining kit (Abcam; Cambridge, Mass.) was used, following the manufacturer's instructions. After washing with 1×Assay buffer, cells were incubated with Green Detection Reagent to cover the monolayer of cells. For the detection of Hst1 and TMEM97, mouse anti-Hst1 antibody (Abcam; Cambridge, Mass.), rabbit primary antibody against Hst1 (Mybiosource; San Diego, Calif.), and rabbit anti-TMEM97 antibody (Novus Bio.; Littleton, Colo.) were used. Cells were incubated overnight at 4° C. with primary antibodies, washed three times for 5 minutes each time in PBS before incubation with secondary antibodies for 30 minutes. Cells were then counterstained with 1 μg/mL 4′,6-diamidino-2-phenylindole (DAPI) solution in PBS for 3 minutes, then washed three times with PBS containing 0.05% TRITON™ X-100 for 5 minutes each time, twice with PBS for 5 minutes each time, and once with distilled water for 10 seconds. The cells were mounted in Fluoro gel with Tris buffer (Electron Microscopy Sciences; Hatfield, Pa.) and observed under a confocal microscope (Zeiss LSM 710 Confocal Microscope; Oberkochen, Germany) using a 40×objective. Fluorescent dye sold under the tradename ALEXA FLUOR® 488 NHS Ester (Molecular Probes; Carlsbad, Calif.) was used for making Alexa-488 coupled synthetic Hst1.
Transfection/Knock-Down of TMEM97. Sub-confluent monolayers of HCE cells in grown in 35-mm six-well plates were transfected with reaction mixtures composed of 100 pmol of small interfering RNA (siRNA) to TMEM97 (Santa Cruz Biotechnology; Dallas, Tex.) for 48 hours and 5 μL of transfection reagent sold under the tradename LIPOFECTAMINE® 2000 (Invitrogen; Carlsbad, Calif.) in culture medium sold under the tradename OPTI-MEMO media (Gibco Life Technologies; Grand Island, N.Y.). Complexes were incubated for 20 minutes at 24° C. and then added to cells at 37° C. Incubation was continued for 24 to 48 hours at 37° C. in 5% CO2. Knock-down (KD) of TMEM97 was confirmed by western blot analysis using a rabbit anti-TMEM97 antibody (Novus Bio.; Littleton, Colo.). […]

[5] = Circular dichroism secondary structure analysis (DichroWeb); format: physicochemical
Protocol: Circular Dichroism (CD). CD analysis was performed on a Jasco 815 CD spectrometer at room temperature. TMEM97 (108-176) and Hst1 full-length peptides were prepared as 10 mM stock in 25% DMSO and water, respectively, and diluted to 0.15 mg/mL final concentration in 10 mM […] buffer. A total of 400 μL of each sample was added into a 1 mm quartz sample cell, and CD spectra were recorded from 260 nm to 190 nm wavelength. Data points were measure in 0.5 nm wavelength step at a scanning speed of 100 nm/minute. A total of five spectra were acquired for each sample and averaged. […] buffer without peptide was used as a control curve, which was subsequently subtracted from the CD spectra of peptide samples. The resulting buffer control subtracted CD intensity row data in millidegrees were submitted to DichroWeb and fitted with multiple embedded models and converted to mean residue ellipticity.
Subsequently, the hypothesis that interaction between Hst1 and TMEM97 could affect the structure of each protein was tested. Also, the secondary structure of Hst1 and TMEM97 was tested in solution using CD measurements. It was noted that Hst1 alone is mostly disordered (over 50%) with some degree of β-strand, while TMEM97 (108-176) contains some α-helical and β-strand regions with ˜34% disordered regions. According to CD spectra comparison, there seemed to be more secondary structures formed upon Hst1 binding to TMEM97 (108-176).

[6] = target: T6, Synthetic TMEM97 (144-176) peptide; experiment: SPR
T6 construct: Synthetic peptide; also called (predicted) cytoplasmic segment
T6 peptide: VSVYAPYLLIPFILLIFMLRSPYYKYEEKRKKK

[7] = target: T7, GST-TMEM97 (108-176), recombinant from wheat germ (Abnova) (UniProt Q5BJF2 108-176); experiment: SPR
T7 construct: not shown: GST tag

[8] = target: T8, Synthetic TMEM97 (108-176) peptide; experiment: SPR
T8 construct: Synthetic peptide; also called full C-terminal synthetic TMEM97
T8 peptide: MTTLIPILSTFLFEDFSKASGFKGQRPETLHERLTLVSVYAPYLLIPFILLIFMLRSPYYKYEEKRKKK

[9] = CD, fraction of secondary structure

With `N=C(N)NCCC[C@H](NC(=O)[C@H](Cc1ccc(O)cc1)NC(=O)CNC(=O)[C@H](Cc1c[nH]cn1)NC(=O)[C@H](Cc1c[nH]cn1)NC(=O)[C@H](CCCNC(=N)N)NC(=O)[C@H](CCCCN)NC(=O)[C@H](CCC(=O)O)NC(=O)[C@H](Cc1c[nH]cn1)NC(=O)[C@H](COP(=O)(O)O)NC(=O)[C@@H](N)CC(=O)O)C(=O)N[C@@H](CCCNC(=N)N)C(=O)N[C@@H](CCCCN)C(=O)N[C@@H](Cc1ccccc1)C(=O)N[C@@H](Cc1c[nH]cn1)C(=O)N[C@@H](CCC(=O)O)C(=O)N[C@@H](CCCCN)C(=O)N[C@@H](Cc1c[nH]cn1)C(=O)N[C@@H](Cc1c[nH]cn1)C(=O)O` [Hst1(1-19)] (H-D[pS]HEKRHHGYRRKFHEKHH-OH) the “% Rmax” value [1] was “(% Rmax = 16%)”, the “% Rmax” value (GST-TMEM97 (108-176)) was “(% Rmax = 32%)” and the “% Rmax” value [2] was “(% Rmax = 19%)”.

For `N=C(N)NCCC[C@H](NC(=O)[C@H](Cc1ccc(O)cc1)NC(=O)CNC(=O)[C@H](Cc1c[nH]cn1)NC(=O)[C@H](Cc1c[nH]cn1)NC(=O)[C@H](CCCNC(=N)N)NC(=O)[C@H](CCCCN)NC(=O)[C@H](CCC(=O)O)NC(=O)[C@H](Cc1c[nH]cn1)NC(=O)[C@H](COP(=O)(O)O)NC(=O)[C@@H](N)CC(=O)O)C(=O)N[C@@H](CCCNC(=N)N)C(=O)N[C@@H](CCCCN)C(=O)N[C@@H](Cc1ccccc1)C(=O)N[C@@H](Cc1c[nH]cn1)C(=O)N[C@@H](CCC(=O)O)C(=O)N[C@@H](CCCCN)C(=O)N[C@@H](Cc1c[nH]cn1)C(=O)N[C@@H](Cc1c[nH]cn1)C(=O)N[C@@H](CO)C(=O)N[C@@H](Cc1c[nH]cn1)C(=O)N[C@@H](CCCNC(=N)N)C(=O)N[C@@H](CCC(=O)O)C(=O)N[C@@H](Cc1ccccc1)C(=O)N1CCC[C@H]1C(=O)N[C@@H](Cc1ccccc1)C(=O)O` [Hst1(1-26)] (H-D[pS]HEKRHHGYRRKFHEKHHSHREFPF-OH), the “% Rmax” value [1] was “(% Rmax = 4%)”, the KD / binding [3] was “No binding” and the “% Rmax” value (GST-TMEM97 (108-176)) was “(% Rmax = 24%)”. For the same molecule, the “% Rmax” value [2] was “(% Rmax = 8%)”.

For “HYHKFHRYYDPGSNLYKEHNHGFHHGYKDEFRREpSRDS (HYHKFHRYYDPGSNLYKEHNHGFHHGYKDEFRRE[pS]RDS) [reference compound]”, the “% Rmax” value (GST-TMEM97 (108-176)) was 5%, the KD (GST-TMEM97 (108-176)) was “No binding” and the “% Rmax” value [4] was 8%. For the same molecule, the KD ([4]; 25° C., 1 to 1 Langmuir kinetic model) was “No binding”.

In the case of “Hst1(1-14): Hst1 fragment, residues 1-14 (DSHEKRHHGYRRKF)”, the KD [1] is reported as “No binding”, the KD / binding [3] is reported as “No binding” and the KD [2] is reported as “No binding”.

For “Hst1(15-38): Hst1 fragment, residues 15-38 (HEKHHSHREFPFYGDYGSNYLYDN)”, the KD [1] was “No binding”, the KD (GST-TMEM97 (108-176)) was “No binding” and the KD [2] was “No binding”.

With “Hst1(20-32): Hst1 fragment, residues 20-32 (SHREFPFYGDYGS)” the KD [1] was “No binding”.

For “fluorescent dye-coupled synthetic Hst1: synthetic Hst1 coupled with ALEXA FLUOR 488 NHS Ester (D[pS]HEKRHHGYRRKFHEKHHSHREFPFYGDYGSNYLYDN; also: coupled with Alexa Fluor 488 NHS ester, site not given here; UniProt P15515 20-57, looked up)”, the internalization into cells (HCE cells) was “internalized into HCE cells”.

B1: MTTLIPILSTFLFEDFSKASGFKGQRPETLHERLTLVSVYAPYLLIPFILLIFMLRSPYYKYEEKRKKK (peptide)
chain: MTTLIPILSTFLFEDFSKASGFKGQRPETLHERLTLVSVYAPYLLIPFILLIFMLRSPYYKYEEKRKKK
Molecule B1 has a disordered regions ([5]; CD in solution) of roughly 34%, a Helix [5, 9] of 0.14 and a Strand [5, 9] of 0.31. For the same molecule, the Turns [5, 9] was 0.21 and the Unordered [5, 9] was 0.34.

SHREFPFYGDYGS (Fragment of Hst1) [Hst1(20-32)]: no binding [6].

For DSHEKRHHGYRRKFHEKHH (not fully specified (residue 2); ends and bridges not checked) [Hst1(1-19)], the Kd [7] was 3.6 µM, the Kd [8] was 12.7 µM and the Kd [6] was 8.8 µM.

HEKHHSHREFPFYGDYGSNYLYDN (Fragment of Hst1) [Hst1(15-38)]: no binding [8]; no binding [6].
